In the RNAGym collection of RNA variant scans (doi:10.7554/elife.80360) one finds self-cleavage data, which are given here for 167 variants.

The chains are these.
B1: Hairpin Ribozyme (parent)
chain: GUCCUCUUUCACGUGCGCGUGAAAGAGAGAAGUGAACCAGAGAAACACACGUUGUGGUAUAUUACCUGGUA

In the series the parent is B1. The series is described as follows: self-cleavage, relative activity (ratio to wild type); higher = more cleavage; co-transcriptional.
For the variant U5G C18G, the self-cleavage amounted to 0.577. For U5C U14C, the self-cleavage worked out at 0.557. The result for U5C U14G reads 0.385. The value for U5C G69A was 0.158; that for C4G G34A was 0.5. The result for C4G G34U reads 0.977; that for U5C A39G, 0.192. On to U5G A43U, for which the self-cleavage turned out to be 0.155. Take U5G A43C: the self-cleavage came out at 0.269. As for C4U U67A, the self-cleavage stood at 0.121. The result for C4U U8G reads 0.204; that for U5A A41U, 0.818. The value for C4U U5A was 0.0527; that for U5A G51A was 0.393; that for C4G G69C was 0.193.

As for U5A G42A, the self-cleavage was 0.217. The result for U5C A59C reads 0.105; that for U5G A26U, 0.51; that for U5G A26G, 0.286. The value for U5A U9C was 0.179; that for U5G C37G was 0.125. Turning to C4G C46U, the self-cleavage worked out at 0.235. The result for C4G C46A reads 0.102; that for U5G G21A, 0.17; that for U5C A35U, 0.0604.

Take U5C A35C: the self-cleavage is 0.732. The result for U5G G42C reads 0.0932; that for U5G G42U, 0.198; that for U5G A45G, 0.121. With U5C C6G, the self-cleavage came to 0.138. For U5C U20A, the self-cleavage was 0.532. As for C4G U67C, the self-cleavage is 0.0875. On to U5A G40U, for which the self-cleavage came out at 0.101. Turning to U5G G15A, the self-cleavage stood at 0.407.

Regarding U5C C38A, the self-cleavage amounted to 0.168. The value for U5C A47C was 0.208; that for U5C A47U was 0.166. Regarding C4U A41G, the self-cleavage was 0.299. The result for C4U C66A reads 0.182; that for C4U C66G, 0.217; that for C4U G69U, 0.177.

For C4U G21U, the self-cleavage came out at 0.222. The value for C4U G21C was 0.328. On to U5G C50U, for which the self-cleavage was 0.147. In the case of U5A G57U, the self-cleavage was 0.102. The result for U5A G32A reads 0.158. On to U5A U55C, for which the self-cleavage came to 0.157. The value for U5C C46U was 0.023.

As to U5C G29A, the self-cleavage worked out at 0.106. With U5G A49U, the self-cleavage came to 0.127.

On to U5C U63G, for which the self-cleavage was 0.0578. The result for U5A C66U reads 0.153; that for U5A C66G, 0.176.

C4U U60A: the self-cleavage was determined as 0.199. The value for C4U U60C was 0.48; that for U5G G34U was 1.08; that for C4G U5A was 0.203. The value for C4G U5G was 0.0498.

Turning to C4G G29C, the self-cleavage came out at 0.0848. The value for C4G U33C was 0.0651.

As for C4G U33G, the self-cleavage came out at 0.13. On to U5C G42C, for which the self-cleavage was 0.327. As to U5C G42U, the self-cleavage is 0.164.

U5G G29A: the self-cleavage was 0.139. The value for C4U A39U was 0.188. With C4G U52C, the self-cleavage worked out at 0.174.

With U5G A44U, the self-cleavage is 0.093. On to C6A A26C, for which the self-cleavage amounted to 0.418. The result for C4U A71G reads 0.426; that for C4U G27U, 0.118. The value for C4U G27C was 0.229; that for U5G A35G was 0.36; that for U5G A35C was 0.254.

U5A A11C: the self-cleavage came to 0.281. The result for U5A A31U reads 0.14; that for C4G G32A, 0.154.

With C6A A35U, the self-cleavage is 0.428. The result for C6A A35C reads 0.695; that for C6A A35G, 0.619. Turning to C4U U63G, the self-cleavage amounted to 0.103. In the case of U5A A47G, the self-cleavage is 0.102.

In the case of U5A A47C, the self-cleavage amounted to 0.187. The result for U5A A47U reads 0.0694; that for U5A G13C, 0.19. As to U5A G13U, the self-cleavage amounted to 0.302.

With C6A C16A, the self-cleavage amounted to 0.561. As for U5A C12G, the self-cleavage worked out at 0.266.

In the case of U5A C12A, the self-cleavage was found to be 0.273. The value for U5A A43C was 0.113; that for U5A A43G was 0.0784. The value for U5C G32A was 0.162.

Consider C4G U9A, for which the self-cleavage came out at 0.162.

For U5G A30G, the self-cleavage is 0.144. The result for C4U C50U reads 0.213. For C4U C50A, the self-cleavage amounted to 0.203. On to U5A A71C, for which the self-cleavage was determined as 0.884. The result for U5A C48G reads 0.0819; that for U5G A39G, 0.0943; that for U5C C66G, 0.113.

U5C C66U: the self-cleavage came out at 0.38. The value for U5C G19A was 0.422; that for U5G A64U was 0.161; that for U5G U52G was 0.255. Consider C4U U62C, for which the self-cleavage came out at 0.16. In the case of C4U U62G, the self-cleavage came out at 0.181.

For the variant U5A C50U, the self-cleavage stood at 0.291. The value for U5G G17C was 0.35. The result for C6A A71C reads 1.14; that for U5A A59U, 0.153. The result for C4G U20A reads 0.225. As to U5A C6A, the self-cleavage stood at 0.337.

As to U5A U53A, the self-cleavage was determined as 0.221. The result for U5A U53C reads 0.452. In the case of C4U G42A, the self-cleavage worked out at 0.27. The value for C4U C46G was 0.121; that for C4U C46A was 0.164. The value for U5C G27U was 0.0794. With U5C G27C, the self-cleavage amounted to 0.15.

Regarding C4U A64U, the self-cleavage amounted to 0.205. With C4G C48A, the self-cleavage was found to be 0.151.

As to U5C G56U, the self-cleavage was 0.128.

Take U5C G56A: the self-cleavage was determined as 0.107. The value for C4U A30C was 0.104. Take C4U A30G: the self-cleavage stood at 0.128. For the variant C4U C38G, the self-cleavage came to 0.0751. The value for C4U C38A was 0.13; that for U5C A43G was 0.201. Regarding U5G A36C, the self-cleavage amounted to 0.38.

In the case of U5A U33C, the self-cleavage amounted to 0.0952.

In the case of U5C U7A, the self-cleavage stood at 0.395.

As to U5C U7G, the self-cleavage was determined as 0.365. The value for C4U C12U was 0.357; that for C6A A59C was 0.113; that for C6A A59U was 0.107.

Consider U5G A71C, for which the self-cleavage worked out at 0.732. For the variant C4U A59C, the self-cleavage came out at 0.126. For C4U U9G, the self-cleavage stood at 0.178. The value for U5C A24G was 0.453. The value for U5C A24C was 0.483; that for U5A U60C was 0.709; that for U5A U60A was 0.477. The value for C4U A22U was 0.362; that for U5A A49C was 0.124; that for U5A A49U was 0.0811. As to U5A A61C, the self-cleavage is 0.088. For the variant C4G U60G, the self-cleavage is 0.147. Take C4G U60A: the self-cleavage came out at 0.105. As to U5G A61C, the self-cleavage turned out to be 0.112.

With U5G A61U, the self-cleavage was 0.108. The result for U5G A41U reads 0.607. Regarding U5G A41G, the self-cleavage turned out to be 0.129. The result for U5G A41C reads 0.571. Turning to C4U U20G, the self-cleavage worked out at 0.213. On to C4G G56A, for which the self-cleavage turned out to be 0.249. For C4G G56U, the self-cleavage turned out to be 0.148. As to U5C C10G, the self-cleavage came to 0.373. The result for C4U reads 0.371; that for U5G G68A, 0.201; that for C6A A28U, 0.365. The value for C6A A28G was 0.811; that for U5C C37A was 0.178; that for C4G U58G was 0.241. The result for C4G U8C reads 0.0934; that for C4U U55A, 0.0732; that for C4U C37A, 0.158. With U5C A41G, the self-cleavage was 0.569. The value for U5C A41U was 1.06.
